Laboratory results reported in the Human Domainome abundance scans (Beltran et al. 2025).
± gives the uncertainty stated by the source.

B1: Chromodomain-helicase-DNA-binding protein 7, residues 2564 to 2605; numbered along this chain, Q9P2D1 (parent)
chain: DPDTRIPVINLEDGTRLVGEDAPKNKDLVEWLKLHPTYTVDM

Variants of: B1
Assay: abundance fitness (aPCA) (normalised: wild type 0, dead -1); higher = more abundant; growth selection in yeast, the domain comes from the species named
Conditions: Homo sapiens
Variant DPDTRIPVINLEDGTRLVGEDAPKNKDLVEWLKLCPTYTVDM [H35C] has an abundance fitness of -0.866 ± 0.088. DPDTRIPVINLEDGTRLVGEDAPKNKDLVEWLKLEPTYTVDM [H35E] showed an abundance fitness of -0.615 ± 0.093. DPDTRIPVINLEDGTRLVGEDAPKNKDLVEWLKLFPTYTVDM [H35F] gave an abundance fitness of -0.744 ± 0.074. With DPDTRIPVINLEDGTRLVGEDAPKNKDLVEWLKLDPTYTVDM [H35D] the abundance fitness was -0.547 ± 0.1. In the case of DPDTRIPVINLEDGTRLVGEDAPKNKDLVEWLKLLPTYTVDM [H35L], the abundance fitness is reported as -0.866 ± 0.08. For DPDTRIPVINLEDGTRLVGEDAPKNKDLVEWLKLKPTYTVDM [H35K], the abundance fitness was -0.546 ± 0.14. With DPDTRIPVINLEDGTRLVGEDAPKNKDLVEWLKLGPTYTVDM [H35G] the abundance fitness was -0.758 ± 0.053. For DPDTRIPVINLEDGTRLVGEDAPKNKDLVEWLKTHPTYTVDM [L34T], the abundance fitness was 0.03 ± 0.093. DPDTRIPVINLEDGTRLVGEDAPKNKDLVEWLKEHPTYTVDM [L34E] gave an abundance fitness of 0.048 ± 0.07. Work on DPDTRIPVINLEDGTRLVGEDAPKNKDLVEWLKCHPTYTVDM [L34C] yielded an abundance fitness of -0.002 ± 0.06. DPDTRIPVINLEDGTRLVGEDAPKNKDLVEWLKIHPTYTVDM [L34I] gave an abundance fitness of -0.417 ± 0.099. For DPDTRIPVINLEDGTRLVGEDAPKNKDLVEWLKGHPTYTVDM [L34G], the abundance fitness was -0.047 ± 0.045. DPDTRIPVINLEDGTRLVGEDAPKNKDLVEWLKYHPTYTVDM [L34Y] showed an abundance fitness of -0.251 ± 0.052. Work on DPDTRIPVINLEDGTRLVGEDAPKNKDLVEWLKFHPTYTVDM [L34F] yielded an abundance fitness of -0.334 ± 0.12. For DPDTRIPVINLEDGTRLVGEDAPKNKDLVEWLKAHPTYTVDM [L34A], the abundance fitness was 0.141 ± 0.077. With DPDTRIPVINLEDGTRLVGEDAPKNKDLVEWLKHHPTYTVDM [L34H] the abundance fitness was -0.037 ± 0.066. With DPDTRIPVINLEDGTRLVGEDAPKNKDLVEWLKDHPTYTVDM [L34D] the abundance fitness was -0.042 ± 0.1. DPDTRIPVINLEDGTRLVGEDAPKNKDLVEWLKNHPTYTVDM [L34N] showed an abundance fitness of -0.014 ± 0.066. Variant DPDTRIPVINLEDGTRLVGEDAPKNKDLVEWLKKHPTYTVDM [L34K] has an abundance fitness of -0.029 ± 0.39. In the case of DPDTRIPVINLEDGTRLVGEDAPKNKDLVEWLKVHPTYTVDM [L34V], the abundance fitness is reported as -0.039 ± 0.076. In the case of DPDTRIPVINLEDGTRLVGEDAPKNKDLVEWLKMHPTYTVDM [L34M], the abundance fitness is reported as 0.011 ± 0.077. In the case of DPDTRIPVINLEDGTRLVGEDAPKNKDLVEWLKPHPTYTVDM [L34P], the abundance fitness is reported as -0.328 ± 0.095. Variant DPDTRIPVINLEDGTRLVGEDAPKNKDLVRWLKLHPTYTVDM [E30R] has an abundance fitness of -0.277 ± 0.072. Variant DPDTRIPVINLEDGTRLVGEDAPKNKDLVKWLKLHPTYTVDM [E30K] has an abundance fitness of -0.333 ± 0.31. For DPDTRIPVINLEDGTRLVGEDAPKNKDLVGWLKLHPTYTVDM [E30G], the abundance fitness was -0.145 ± 0.056. For DPDTRIPVINLEDGTRLVGEDAPKNKDLVNWLKLHPTYTVDM [E30N], the abundance fitness was -0.065 ± 0.074. DPDTRIPVINLEDGTRLVGEDAPKNKDLVSWLKLHPTYTVDM [E30S] gave an abundance fitness of -0.023 ± 0.059. Work on DPDTRIPVINLEDGTRLVGEDAPKNKDLVVWLKLHPTYTVDM [E30V] yielded an abundance fitness of -0.391 ± 0.068. DPDTRIPVINLEDGTRLVGEDAPKNKDLVFWLKLHPTYTVDM [E30F] showed an abundance fitness of -0.591 ± 0.12. With DPDTRIPVINLEDGTRLVGEDAPKNKDLVCWLKLHPTYTVDM [E30C] the abundance fitness was -0.253 ± 0.072. In the case of DPDTRIPVINLEDGTRLVGEDAPKNKDLVHWLKLHPTYTVDM [E30H], the abundance fitness is reported as -0.262 ± 0.095. Variant DPDTRIPVINLEDGTRLVGEDAPKNKDLVLWLKLHPTYTVDM [E30L] has an abundance fitness of -0.497 ± 0.056. DPDTRIPVINLEDGTRLVGEDAPKNKDLVMWLKLHPTYTVDM [E30M] gave an abundance fitness of -0.313 ± 0.1. With DPDTRIPVINLEDGTRLVGEDAPKNKDLVDWLKLHPTYTVDM [E30D] the abundance fitness was 0.008 ± 0.063. Work on DPDTRIPVINLEDGTRLVGEDAPKNKDLVQWLKLHPTYTVDM [E30Q] yielded an abundance fitness of -0.187 ± 0.13. DPDTRIPVINLEDGTRLVGEDAPKNKDLVAWLKLHPTYTVDM [E30A] gave an abundance fitness of 0.027 ± 0.12. DPDTRIPVINLEDGTRLVGEDAPKNKDLVWWLKLHPTYTVDM [E30W] showed an abundance fitness of -0.529 ± 0.11. DPDTRIPVINLEDGTRLVGEDAPKNKDLVPWLKLHPTYTVDM [E30P] gave an abundance fitness of -0.345 ± 0.33. In the case of DPDTRIPVINLEDGTRLVGEDAPKNKDLVTWLKLHPTYTVDM [E30T], the abundance fitness is reported as -0.022 ± 0.078. DPDTRIPVINLEDGTRLVGEDAPKNKDLVIWLKLHPTYTVDM [E30I] gave an abundance fitness of -0.608 ± 0.12. In the case of DPDTRIPVINLEDGTRLVGEDAPKNKDLVEWLFLHPTYTVDM [K33F], the abundance fitness is reported as -0.339 ± 0.061. Work on DPDTRIPVINLEDGTRLVGEDAPKNKDLVEWLHLHPTYTVDM [K33H] yielded an abundance fitness of -0.22 ± 0.46. In the case of DPDTRIPVINLEDGTRLVGEDAPKNKDLVEWLDLHPTYTVDM [K33D], the abundance fitness is reported as -0.01 ± 0.13. Work on DPDTRIPVINLEDGTRLVGEDAPKNKDLVEWLALHPTYTVDM [K33A] yielded an abundance fitness of 0.162 ± 0.12. In the case of DPDTRIPVINLEDGTRLVGEDAPKNKDLVEWLILHPTYTVDM [K33I], the abundance fitness is reported as -0.449 ± 0.058. In the case of DPDTRIPVINLEDGTRLVGEDAPKNKDLVEWLTLHPTYTVDM [K33T], the abundance fitness is reported as -0.468 ± 0.088. DPDTRIPVINLEDGTRLVGEDAPKNKDLVEWLCLHPTYTVDM [K33C] showed an abundance fitness of -0.4 ± 0.069. DPDTRIPVINLEDGTRLVGEDAPKNKDLVEWLSLHPTYTVDM [K33S] showed an abundance fitness of -0.01 ± 0.055. In the case of DPDTRIPVINLEDGTRLVGEDAPKNKDLVEWLLLHPTYTVDM [K33L], the abundance fitness is reported as -0.17 ± 0.064. DPDTRIPVINLEDGTRLVGEDAPKNKDLVEWLELHPTYTVDM [K33E] showed an abundance fitness of -0.04 ± 0.074. With DPDTRIPVINLEDGTRLVGEDAPKNKDLVEWLNLHPTYTVDM [K33N] the abundance fitness was -0.095 ± 0.078. DPDTRIPVINLEDGTRLVGEDAPKNKDLVEWLWLHPTYTVDM [K33W] gave an abundance fitness of -0.319 ± 0.079. Work on DPDTRIPVINLEDGTRLVGEDAPKNKDLVEWLGLHPTYTVDM [K33G] yielded an abundance fitness of -0.215 ± 0.071. For DPDTRIPVINLEDGTRLVGEDAPKNKDLVEWLVLHPTYTVDM [K33V], the abundance fitness was -0.261 ± 0.059. With DPDTRIPVINLEDGTRLVGEDAPKNKDLVEPLKLHPTYTVDM [W31P] the abundance fitness was -0.141 ± 0.082. With DPDTRIPVINLEDGTRLVGEDAPKNKDLVEFLKLHPTYTVDM [W31F] the abundance fitness was 0.223 ± 0.094. In the case of DPDTRIPVINLEDGTRLVGEDAPKNKDLVELLKLHPTYTVDM [W31L], the abundance fitness is reported as -0.492 ± 0.07. DPDTRIPVINLEDGTRLVGEDAPKNKDLVEYLKLHPTYTVDM [W31Y] gave an abundance fitness of -0.297 ± 0.064. In the case of DPDTRIPVINLEDGTRLVGEDAPKNKDLVEELKLHPTYTVDM [W31E], the abundance fitness is reported as -0.099 ± 0.14. For DPDTRIPVINLEDGTRLVGEDAPKNKDLVEGLKLHPTYTVDM [W31G], the abundance fitness was -0.163 ± 0.046.
